Assay: yeast display, Sf9 membrane polyspecificity reagent, FACS + sequencing; frameworks hold sequencing errors
Summary of the method: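 A nanobody's polyreactivity label depends on the gate it was sorted from. Yeast display cells were stained with 10% biotinylated, detergent-solubilized Sf9 membrane reagent for 1 hour at 4 °C, enriched on streptavidin microbeads and sorted by FACS. The low and high (top ~1%) gates were set on anti-HA fluorescence for expression and streptavidin fluorescence for reagent binding.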

Row | Sequence | polyreactivity (PSR sort gate)
1 | QVQLVESGGGLVQAGGRLRLSCAASGRIFKSNAMGWYRQAPGKERELVATIDVIGTSTYYADSVKGRFTISRDNAKNTVYLQMNSLKPEDTAVYYCAAVGWGGWSDSYDYWGQGTQVTVSS | low polyreactivity
2 | QVQLVESGGGLVQAGGRLRLSCAASGRIFKTNAMGWYRQAPGKERELVPAISKRGGRTYYADSVKGRFTISRDNAKNTVYLQMNSLKPEDTAVYYCATRYSGYSLGDYWGQGTQVTVSS | high polyreactivity
3 | QVQLVESGGGLVQAGGRLRLSCAASGRIFLFYDMGWYRQAPGKERELVATISFRRGSTYYADSVKGRFTISRDNAKNTVYLQMNSLKPEDTAVYYCAKQNKRGYSTSAYYYWGQGTQVTVSS | low polyreactivity
4 | QVQLVESGGGLVQAGGRLRLSCAASGRIFLGNVMGWYRQAPGKERELVAAISSGGSTNYADSVKGRFTISRDNAKNTVYLQMNSLKPEDTAVYYCAAYFVRDWKLYYYWGQGTQVTVSS | low polyreactivity
5 | QVQLVESGGGLVQAGGRLRLSCAASGRIFRGYAMGWYRQAPGKERELVAGITWGGGRTYYADSVKGRFTISRDNAKNTVYLQLNSLKPEDTAVYYCAAYYSQDSRRKYDYWGQGTQVTVSS | high polyreactivity
6 | QVQLVESGGGLVQAGGRLRLSCAASGRIFTYNAMGWYRQAPGKEREFVAAISSGGSTTYADSVKGRFTISRDNAKNTVYLQMNSRKPEDTAVYYCAARGWRFAIIEYEYWGQGTQVTVSS | low polyreactivity
7 | QVQLVESGGGLVQAGGRLRLSCAASGRIFVYYAMGWYRQAPGQERELVAAITYSVDSTYYADSVKGRFTISRDNAKNTVYLQMNSLKPEDTAVYYCATDVDWAYGYQYEYWGQGTQVTVSS | low polyreactivity
8 | QVQLVESGGGLVQAGGRLRLSCAASGRIFYGNAMGRYRPAPVKERELVATISSSGGSTTYADSVKGRFTISRDNAKYTVYLQMNSLKPEDSAVYYCADQGYWTGYDYWGQGSQVTVSS | high polyreactivity
9 | QVQLVESGGGLVQAGGRLRLSCAASGRIFYYYAMGWYRQAPGKERELVAAINRSGGSTYYADSVKGRFTISRDNAKNTVYLQMNSLKPEDTAVYSCASYDYWGQGTQVTVSS | high polyreactivity
10 | QVQLVESGGGLVQAGGRLRLSCAASGRISYYYTMGWYRQAPGKERQLVAAISWSGGTTYYADSVKGRFTISRDNAKNTVYLQMNSLKPEDTAVYYCAAREYYTDVHGTRRYDYWGQGTQVTVSS | low polyreactivity
11 | QVQLVESGGGLVQAGGRLRLSCAASGRTFGRYAMGWYRQAPGKERELVAAITGGVITTYADSVKGRFTISRDNAKNTVYLQMNSLKPEDTAVYYCAARYNVFPSPHYYYWGQGTQVTVSS | low polyreactivity
12 | QVQLVESGGGLVQAGGRLRLSCAASGRTFGVYAMGWYRQSPGKEREFVGVISWSDDSTYYADSVKGRFTISRDNAKNTVYLQMNSLKPEDTAVYYCNADDYLVYSGSHYGYWGQGTQVTVSS | low polyreactivity
13 | QVQLVESGGGLVQAGGRLRLSCAASGRTFKLYAMGWYRQAPGKERELVAAISGRGGSTYYADSVKGRFTISRDNAKNTVYLQMNSLKPEDTAVYYCNWYGKYEYWGQGTQVTVSS | high polyreactivity
14 | QVQLVESGGGLVQAGGRLRLSCAASGRTFRYNAMGGSRQAPGKERELVAAISGGDSTYYADSEKGRFTFSRDNAKNTVYLQMNCLKPEDTAVYYCAGRTYRRRVSQSVSRNDYWGQGTQVTVSS | high polyreactivity
15 | QVQLVESGGGLVQAGGRLRLSCAASGRTFTSNAMGWYRQAPGKERELVAAIDDGGSTNYADSVKGRFTISRDNAKNTVYLQMNSLKPEDTAVYYCNAPITWQYRGFRRRFDYWGQGTQVTVSS | low polyreactivity
16 | QVQLVESGGGLVQAGGRLRLSCAASGRTFVPYAMGWYRQPPGKERELVAAISYSGDSTYYADSEKGRFTISRDNAKNTVYLQMNSLKPEDTAVYYCAARGGNPFYYWGQGTQVTVSS | low polyreactivity
17 | QVQLVESGGGLVQAGGRLRLSCAASGRTFYINTMGWYRQAPGKERELVAAISSSGDSTYYADSVKGRFTISRDNAKNTVYLQMNSLKPEDTAVYYCATDYGWYDYWGQGTQVTVSS | low polyreactivity
18 | QVQLVESGGGLVQAGGRLRLSCAASGRTFYWYAMGWYRQAPGKETELVAAISSGGSTYYADSVKGRFTISRDNAKNTVYLQMNSLKPEDTAVYYCAAVTPSGAHRSAYHPISDYWGQGTQVTVSS | low polyreactivity
19 | QVQLVESGGGLVQAGGRLRLSCAASGRTLATFAMGWSRQAPGKERELVAAITFSGGGSTYYADSVKGRFTISRDNAKNTVYLQMKSLKPEDTADYYCAAGPYYSLFGYGSRDNYRYYYWGQGTQVTVSS | high polyreactivity
20 | QVQLVESGGGLVQAGGRLRLSCAASGRTLSRYAMGWYRQAPGKERELVAAINNGGNTNYADSVKGRFTISRDNAKNTVYLQMNSLKPEDTAVYYCAVRWYPRYGSSYDYWGQGTQVTVSS | high polyreactivity
21 | QVQLVESGGGLVQAGGRLRLSCAASGRTSFDYSMGWYRQAPGKDRELVAAITSTGGSTYYADSVKGRFTISRDNAKYTVYLQMNSLKPEDTAVYYCAAVWFTHWGQYQVLEVLYDYWGQGTQVTVSS | low polyreactivity
22 | QVQLVESGGGLVQAGGRLRLSCAASGRTYYTYAMGWYRQAPGKERELVAAITWDGGSTYYADSVKGRFTISRDNAKNTVYLQMNSLKPEDTAVYYCADDLYDTYGTFDYWGQGTQVTVSS | low polyreactivity

Row | Sequence | polyreactivity (PSR sort gate)
23 | QVQLVESGGGLVQAGGRLRLSCAASGSIFDIYAMGLYRQAPGKERELVASIRRRGGSTYYADSVKGRFTISRDNAKNTVYLQMNSLKPEDTAVYYCNARRVWLRTTGTNWPERGYWGQGTQVTVSS | high polyreactivity
24 | QVQLVESGGGLVQAGGRLRLSCAASGSIFDIYAMGWYRQAPGKERELVASIRRRGGSTYYADSVKGRFTISRDNAKNTVYLQKNSLKPEDTAVYYSNARRVWLRTTGTNWPERGYWGQGTQVTVSS | high polyreactivity
25 | QVQLVESGGGLVQAGGRLRLSCAASGSIFDRYAMGWYRQAPGKERELVAAITRSGGSTYYADSVKGRFTISRDNAKNTVYLQMNSLKPEDTAVYYCNKVYPPRSIPYDFCGQGTQVTVSS | low polyreactivity
26 | QVQLVESGGGLVQAGGRLRLSCAASGSIFGKYAMGWYRQAPGKERELVAAISKGGGRTSYADSVKGRFTISRDNAKNTVYLQMNSLKPEDTAVYYCNRYTQYRDRSDNHWGQGTQVTVSS | high polyreactivity
27 | QVQLVESGGGLVQAGGRLRLSCAASGSIFLHNAMGWYRQAPGKERELVAAISGTGGRTYYADSVKGRFTISRDNAKNTVYLQMNSLKPEDTAVYYCAVVFYHRHSYYWGQGTQVTVSS | high polyreactivity
28 | QVQLVESGGGLVQAGGRLRLSCAASGSIFNRYAMGWYRQAPGKERELVAAISSTGSTYYADSVKGRFTISRDNAKNTVYLQMNSLKPEDTAVYYCNADATHDLLRVDTYEYWGQGTQVTVSS | low polyreactivity
29 | QVQLVESGGGLVQAGGRLRLSCAASGSIFQSYALAWYRQAPGKERELVAVITGGGGSTYYADSVKARFTISRDNAKNTVYLQMNSLKPEDTAVYYCNADFPSFGVIYSTRKDDSWGQGTQVTVSS | low polyreactivity
30 | QVQLVESGGGLVQAGGRLRLSCAASGSIFSKNVMGWYRQAPGKERELVAAISIGGRTYYADSVKGRFTISRDNAKNTVSLQLNSLKPEDTAVYYCNTRFAKRATVGRYDYWGQGTQVTVSS | high polyreactivity
31 | QVQLVESGGGLVQAGGRLRLSCAASGSIFYRNAMGWYRQAPGKERELVAAIRYSGDNTYYADSVKGRFTISRDNAKNTVYLQMNSLKPEDTAVYYCAADFPDYEYWGQGTQVTVSS | high polyreactivity
32 | QVQLVESGGGLVQAGGRLRLSCAASGSIFYSNAMGWYRQAPGKERELVARITWSGGSTYYADSVKGRFTISRDNAKNTVYLQMNSLKPEDTAVYYCNKVIFRYFTTRPTRTYEYWGQGTQVTVSS | low polyreactivity
33 | QVQLVESGGGLVQAGGRLRLSCAASGSIFYYYAMGWYRQAPGTERELVAAISRGGNTYYADSVKGRFTNSRDNAKNTVYLQMNSLKPEDTAVYYCNARPPNKRYKYGYWGQGTQVTVSS | high polyreactivity
34 | QVQLVESGGGLVQAGGRLRLSCAASGSILGEYAMGLNRQANGKERELVAAISVGGCSTYYADSVKGRFTISRDNAKNTVYLQMNSLKPVDTAVYYCSAYDYQSEMYYWGQGTQVTVSS | high polyreactivity
35 | QVQLVESGGGLVQAGGRLRLSCAASGSSFVAYTMGWYRQAPGKERELVAAISRGGSTNYADSVKGRFTISRDNAKNTVYLQMNSLKPEDTAVYYCAAKVWDGQLLYYWGQGTQVTVSS | low polyreactivity
36 | QVQLVESGGGLVQAGGRLRLSCAASGSTFAWSAMGWYRQAPGKERELVAGIWNTGRTYYADSVKGRFTISRDNAKNTVYLQMNSLKPEDTAVYYCAALYNSPNVTYYYWGQGTQVTVSS | high polyreactivity
37 | QVQLVESGGGLVQAGGRLRLSCAASGSTFKIYAMGWYRQAPGKERELVARITGRGGSTYYADSVKGRFTISRDNAKNTVYLQLNSLKPEDSAVYYCAARVYTYYYDLHKRFYWGHGTQVTVSS | high polyreactivity
38 | QVQLVESGGGLVQAGGRLRLSCAASGSTIGKYVMGLYRQAPGKERELVAAITNIAGSTYYADSVKGRFTISRDTAKNTVYVQLNSLNPEDTAVYYCAADIEEYYGFDDYDYSYNDYDYWGQGTQVTVSS | high polyreactivity
39 | QVQLVESGGGLVQAGGRLRLSCAASGSTIGYYTMGWYRQAPGKERELVAAISWSGDSTYYADSVKGRFTISRDNAKNTVYLQMNSLKPEDTAVYYCAKVHYVRRGDSRYDYWGQGTQVTVSS | high polyreactivity
40 | QVQLVESGGGLVQAGGRLRLSCAASGSTIRTYARGWYRQAPGKERELVAAITNSDGSTYYADSVKGRFTISRDNAKNTVYLQMYSLKPEDTAVYYCAAYYYPLGYDYWGQGTQVTVSS | low polyreactivity
41 | QVQLVESGGGLVQAGGRLRLSCAASGSTLGRYAMGWYRQAPGKERELVASITWSDDSTYYADYVKGRFTISRDNAKNTVYLQMNSLKPEDTAVYYCAAAGNLYTYRFYYWGQGTQVTVSS | low polyreactivity
42 | QVQLVESGGGLVQAGGRLRLSCAASGSTVRYYAMGGYRQAPVKERELVAAITSGGRTYYADSVKGRFTISRDNAKNTVYLQMNSLKPEDTAVYYCNARRYGSGMDYWGQGTQVTVSS | low polyreactivity
43 | QVQLVESGGGLVQAGGRLRLSCAASGYIFDDKAMGWYRQAPGKERELVATNYADSVKGRFTISRDNAKNTVYLQMNSLKPEATAVYYCAAEAFYPWTSSRYIAYYYWGQGTQVTVSS | low polyreactivity
